The values that follow come from the supplement of paper PMC7877785.

± gives the uncertainty stated by the source.

The nature of the data set: self-splicing fitness, log relative to wild type (ln ratio); higher = more splicing; Tetrahymena group I intron in knt gene, E. coli kanamycin selection, DiMSum; sequences stand for … in CUCUCU…GGAGGGAAAAGUUAUCAGGCAUGCACCUGGUAGCUAGUCUUUAAACCAAUAGAUUGCAUCGGUUUAAAAGGCAAGACCGUCAAAUUGCGGGAAAGGGGUCAACAGCCGUUCAGUACCAAGUCUCAGGGGAAACUUUGAGAUGGCCUUGCAAAGGGUAUGGUAAUAAGCUGACGGACAUGGUCCUAACCACGCAGCCAAGUCCUAAGUCAACAGAUCUUCUGUUGAUAUGGAUGCAGUUCACAGACUAAAUGUCGGUCGGGGAAGAUGUAUUCUUCUCAUAAGAUAUAGUCGGACCUCUCCUUAAUGGGAGCUAGCGGAUGAAGUGAUGCAACACUGGAGCCGCUGGGAACUAAUUUGUAUGCGAAAGUAUAUUGAUUAGUUUUGGAGUACUCGUGGUCG
The method, boiled down: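 Six replicate transformations of E. coli BL21(DE3) with a pET-22b(+) library were grown overnight at 37°C or 30°C. The library randomised all eight P1ex-region intron nucleotides, the intron lying in the knt kanamycin-resistance gene, and plates were LB agar with or without 25 μg/mL kanamycin plus 100 μg/mL carbenicillin, 50 μM IPTG and 0.2% rhamnose. Pooled colonies were amplicon-sequenced on an Illumina HiSeq 2500, and fitness is the DiMSum error-weighted combination of wild-type-normalised replicate fold changes, kanamycin versus none.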

GUCGAGCAAUAUUACGUGAA: the “self-splicing fitness (ln)” value (30 °C) was -1.6 ± 0.12 and the “self-splicing fitness (ln)” value (37 °C) is -1.86 ± 0.17.
The matching figures for ACUGAGCAAUAUUACGAAUA: -2.97 ± 0.28 and -2.65 ± 0.29.
Taken in the same sequence, the figures for GCAAAGCAAUAUUACGUACC were -0.781 ± 0.081 and -0.64 ± 0.12.
The matching figures for AGCGAGCAAUAUUACGUCCC: -1 ± 0.11 and -0.699 ± 0.14.
Regarding UGUCAGCAAUAUUACGUCUU, the “self-splicing fitness (ln)” value reads like this: (30 °C) -0.331 ± 0.071; (37 °C) -0.0647 ± 0.09.
The matching figures for GAUCAGCAAUAUUACGUACA: -0.607 ± 0.12 and 0.177 ± 0.15.
Taken in the same sequence, the figures for AGUCAGCAAUAUUACGUCUG were -2.2 ± 0.13 and -0.783 ± 0.12.
Taken in the same sequence, the figures for GAAGAGCAAUAUUACGCACA were -1.91 ± 0.16 and -1.07 ± 0.14.
Turning to GACAAGCAAUAUUACGAUAC, the “self-splicing fitness (ln)” value (30 °C) was -1.73 ± 0.094 and the “self-splicing fitness (ln)” value (37 °C) was -1.28 ± 0.11.
The matching figures for GUACAGCAAUAUUACGUCUA: -1.11 ± 0.091 and -0.268 ± 0.081.
For the sequence GCGCAGCAAUAUUACGCGAA, the “self-splicing fitness (ln)” value is, setting by setting: (30 °C) -0.172 ± 0.065; (37 °C) -0.153 ± 0.083.
Taken in the same sequence, the figures for GGCCAGCAAUAUUACGAUCC were -0.826 ± 0.11 and 0.0889 ± 0.14.
Taken in the same sequence, the figures for GACAAGCAAUAUUACGGACG were -1.75 ± 0.098 and -0.673 ± 0.12.
As to CACCAGCAAUAUUACGCACA, the “self-splicing fitness (ln)” value by setting is: (30 °C) -1.23 ± 0.16; (37 °C) -0.504 ± 0.14.
In the case of UAUGAGCAAUAUUACGACAC, the “self-splicing fitness (ln)” value (37 °C) was -1.97 ± 0.41.
For AAGGAGCAAUAUUACGAUUC, the “self-splicing fitness (ln)” value by setting is: (30 °C) -1.13 ± 0.19; (37 °C) -1.78 ± 0.48.
Taken in the same sequence, the figures for UUGGAGCAAUAUUACGGAAA were -3.48 ± 0.47 and -1.64 ± 0.24.
Taken in the same sequence, the figures for GACAAGCAAUAUUACGAUGU were -1.66 ± 0.067 and -1.65 ± 0.11.
The matching figures for CUAGAGCAAUAUUACGCAAA: -2.62 ± 0.27 and -1.27 ± 0.4.
For the sequence CUUGAGCAAUAUUACGGGCC, where the note is “37 °C”, the “self-splicing fitness (ln)” value was -2.81 ± 0.34.
Take AUUAAGCAAUAUUACGUCCA: the “self-splicing fitness (ln)” value was -0.883 ± 0.098 (30 °C) and -0.386 ± 0.12 (37 °C).
Taken in the same sequence, the figures for CGUAAGCAAUAUUACGGUUU were -3.8 ± 0.2 and -2.71 ± 0.17.
The matching figures for GACUAGCAAUAUUACGAUCG: -1.24 ± 0.13 and -0.31 ± 0.21.
The matching figures for UCCCAGCAAUAUUACGUAGC: -2.68 ± 0.12 and -2.19 ± 0.16.
CAUUAGCAAUAUUACGGUAA: the “self-splicing fitness (ln)” value is -2.31 ± 0.14 (30 °C) and -2.26 ± 0.14 (37 °C).
As to AAAUAGCAAUAUUACGUGAA, the “self-splicing fitness (ln)” value by setting is: (30 °C) -3.08 ± 0.12; (37 °C) -0.845 ± 0.097.
The matching figures for CACUAGCAAUAUUACGGAUU: -4.22 ± 0.2 and -2.28 ± 0.12.
The matching figures for AUACAGCAAUAUUACGAGUG: -2.32 ± 0.073 and -1.34 ± 0.093.
The matching figures for GCUAAGCAAUAUUACGUCGU: -1.39 ± 0.072 and -1.3 ± 0.095.
With UCGAAGCAAUAUUACGCAAA, the “self-splicing fitness (ln)” value (37 °C) was -3.16 ± 0.4.
In the case of CACUAGCAAUAUUACGUGAU, the “self-splicing fitness (ln)” value is, setting by setting: (30 °C) -3.32 ± 0.12; (37 °C) -3.21 ± 0.15.
The matching figures for GGUGAGCAAUAUUACGACGU: -0.578 ± 0.13 and -0.013 ± 0.15.
Taken in the same sequence, the figures for UUUUAGCAAUAUUACGCGCU were -2.57 ± 0.25 and -0.994 ± 0.21.
On to CCGCAGCAAUAUUACGCCUG, for which the “self-splicing fitness (ln)” value is -1.69 ± 0.13 (30 °C) and -1.22 ± 0.16 (37 °C).
The matching figures for AUCUAGCAAUAUUACGACGA: -0.367 ± 0.12 and -0.44 ± 0.12.
The matching figures for CUAUAGCAAUAUUACGACCA: -3.1 ± 0.29 and -2.44 ± 0.35.
The matching figures for UCCGAGCAAUAUUACGCCUG: -2.12 ± 0.36 and -1.84 ± 0.31.
For the sequence UUGGAGCAAUAUUACGCGAA, the “self-splicing fitness (ln)” value (37 °C) was -1.4 ± 0.29.
As to AUCAAGCAAUAUUACGCGGG, the “self-splicing fitness (ln)” value reads like this: (30 °C) -2.86 ± 0.14; (37 °C) -1.04 ± 0.12.
CUGUAGCAAUAUUACGAGUC: for the setting “37 °C”, the “self-splicing fitness (ln)” value is -2.05 ± 0.31.
Regarding UAAAAGCAAUAUUACGGAGG, the “self-splicing fitness (ln)” value runs as follows: (30 °C) -2.7 ± 0.17; (37 °C) -2.07 ± 0.16.
As to UGGCAGCAAUAUUACGACAC, under “37 °C”, the “self-splicing fitness (ln)” value is -0.701 ± 0.31.
In the case of CAUAAGCAAUAUUACGAGGC, the “self-splicing fitness (ln)” value (30 °C) was -3.54 ± 0.35 and the “self-splicing fitness (ln)” value (37 °C) was -2.24 ± 0.35.
Taken in the same sequence, the figures for AUAGAGCAAUAUUACGGCAC were -1.75 ± 0.14 and -0.686 ± 0.2.
The matching figures for UCCGAGCAAUAUUACGAAAG: -3.3 ± 0.33 and -2.65 ± 0.32.
Taken in the same sequence, the figures for GUUCAGCAAUAUUACGAGGA were -3.54 ± 0.27 and -2.18 ± 0.26.
In the case of AAAAAGCAAUAUUACGUGGA, the “self-splicing fitness (ln)” value reads like this: (30 °C) -2.42 ± 0.1; (37 °C) -1.86 ± 0.1.
Taken in the same sequence, the figures for AUGCAGCAAUAUUACGUGGU were -2.7 ± 0.095 and -2.18 ± 0.1.
Take UUACAGCAAUAUUACGCAUC: the “self-splicing fitness (ln)” value (30 °C) is -3.36 ± 0.15 and the “self-splicing fitness (ln)” value (37 °C) was -1.6 ± 0.13.
The matching figures for UCCAAGCAAUAUUACGCGCA: 0.131 ± 0.064 and 0.306 ± 0.079.
Taken in the same sequence, the figures for UUUAAGCAAUAUUACGGUGU were -3.85 ± 0.28 and -2.3 ± 0.35.
For CGACAGCAAUAUUACGAUGA, the “self-splicing fitness (ln)” value (30 °C) was -0.751 ± 0.075 and the “self-splicing fitness (ln)” value (37 °C) is -0.41 ± 0.075.
The matching figures for GGUUAGCAAUAUUACGUGGU: -2.69 ± 0.18 and -0.78 ± 0.17.
The matching figures for GAGCAGCAAUAUUACGGUGC: -2.98 ± 0.18 and -2.61 ± 0.18.
Taken in the same sequence, the figures for GGAAAGCAAUAUUACGGGCU were -1.29 ± 0.12 and -0.815 ± 0.18.
Turning to AAUGAGCAAUAUUACGAACA, the “self-splicing fitness (ln)” value is -1.5 ± 0.45 (30 °C) and -1.2 ± 0.48 (37 °C).
For the sequence GAAAAGCAAUAUUACGGCUU, the “self-splicing fitness (ln)” value was -0.227 ± 0.082 (30 °C) and 0.0447 ± 0.096 (37 °C).
Taken in the same sequence, the figures for AAGGAGCAAUAUUACGUGAU were -2.78 ± 0.18 and -2.45 ± 0.3.
Taken in the same sequence, the figures for GUCGAGCAAUAUUACGACAG were -2.66 ± 0.23 and -1.75 ± 0.28.
The matching figures for AGCGAGCAAUAUUACGGCAC: -1.57 ± 0.22 and -0.495 ± 0.3.
As for GGCUAGCAAUAUUACGUCGC, the “self-splicing fitness (ln)” value is -1.5 ± 0.28 (30 °C) and -0.438 ± 0.22 (37 °C).
Taken in the same sequence, the figures for CGUAAGCAAUAUUACGUCCA were -2.61 ± 0.17 and -1.25 ± 0.17.
